{"source": "paper PMC3912200", "about": "“Structural and Functional Characterization of Cargo-Binding Sites on the μ4-Subunit of Adaptor Protein Complex 4” (PLoS ONE, 2014)"}
{"tested_on": "cytosolic tail of APP", "experiment": "Yeast two-hybrid (Y2H) analysis of μ4 with the APP tail", "type": "binding", "settings": "mutations at μ2-binding site; growth on -His plates, 30°C", "excerpt": "(§1) The cloning of the tail of APP (residues 649–695), full-length human μ4, and all the other yeast two-hybrid (Y2H) constructs, and the cloning of the C-terminal domain of μ4 for expression in E. coli was described previously. To generate a construct for mammalian expression, full-length human μ4 was obtained by PCR amplification and cloned into the EcoRI and SalI sites of pEGFP-N1 (BD BiosciencesClontech, Mountain View, CA) including a stop-codon before the GFP coding sequence. The cloning of APP-GFP carrying the double mutation F615P/D664A was described previously. Single amino acid substitutions were introduced using the QuikChange mutagenesis kit (Stratagene, La Jolla, CA). Y2H assays were performed as previously described. A set of pCI-neo (Promega) constructs encoding hemagglutinin (HA)-epitope tagged wild-type or mutants of human μ4 was a generous gift of J. Bonifacino and R. Mattera (Cell Biology and Metabolism Program, NICHD, NIH). The nucleotide sequences of all recombinant constructs were confirmed by dideoxy sequencing.\n(§2) Figure 1 Yeast two-hybrid analysis of the interaction of μ4 with the cytosolic tail of APP. (A) Superposition of the surface and ribbon representations of human wild-type μ4 C-terminal domain (pdb entry 3L81). The insets show an enlargement of the μ4-binding site and the putative μ2-binding site with residues chosen for the yeast two-hybrid (Y2H) analysis. The APP peptide (TYKFFEQ; stick model) bound to the μ4-binding site is in yellow, and the EGFR peptide (FYRALM; stick model; pdb entry 1BW8) superposed to the putative μ2-binding site is in magenta. (B) Sequence alignment of the C-terminal domain of the μ subunits of known crystal structure depicting critical residues at the corresponding μ2- and μ4-binding sites. Disordered loops are in yellow letters, and arrows and cylinders represent β-strands and α-helices, respectively. M.m., Mus musculus; R.n., Rattus norvegicus; H.s., Homo sapiens. (C) and (D) Yeast were co-transformed with plasmids encoding Gal4bd fused to the cytosolic tail of the amyloid precursor protein (APP) indicated on the left, and Gal4ad fused to wild-type or mutant μ4 constructs indicated on top of each panel. (C) Y2H analysis of μ4 with mutations on the YKFFE binding site (μ4-binding site). (D) Y2H analysis of μ4 with mutations on a putative YXXØ binding site (μ2-binding site). Mouse p53 fused to Gal4bd and SV40 large T antigen (T Ag) fused to Gal4ad were used as controls. Co-transformed cells were spotted onto His-deficient (-His) or His-containing (+His) plates and incubated at 30°C. Growth is indicative of interactions. Some mutations on either of the two sites affect the interaction of μ4 with the cytosolic tail of APP."}
{"molecule": "K217A: μ4 mutant, μ2-binding site, Y2H construct (protein, left off: Gal4 activation domain, end not stated, kept) MISQFFILSSKGDPLIYKDFRGDSGGRDVAELFYRKLTGLPGDESPVVMHHHGRHFIHIRHSGLYLVVTTSENVSPFSLLELLSRLATLLGDYCGSLGEGTISRNVALVYELLDEVLDYGYVQTTSTEMLRNFIQTEAVVSKPFSLFDLSSVGLFGAETQQSKVAPSSAASRPVLSSRSDQSQKNEVFLDVVERLSVLIASNGSLLKVDVQGEIRLASFLPSGSEMRIGLTEEFCVGKSELRGYGPGIRVDEVSFHSSVNLDEFESHRILRLQPPQGELTVMRYQLSDDLPSPLPFRLFPSVQWDRGSGRLQVYLKLRCDLLSKSQALNVRLHLPLPRGVVSLSQELSSPEQKAELAEGALRWDLPRVQGGSQLSGLFQMDVPGPPGPPSHGLSTSASPLGLGPASLSFELPRHTCSGLQVRFLRLAFRPCGNANPHKWVRHLSHSDAYVIRI", "effect of mutation on interaction of the APP tail with μ4 (Y2H)": "little or no effect"}
{"molecule": "F188A: μ4 mutant, μ2-binding site, Y2H construct (protein, left off: Gal4 activation domain, end not stated, kept) MISQFFILSSKGDPLIYKDFRGDSGGRDVAELFYRKLTGLPGDESPVVMHHHGRHFIHIRHSGLYLVVTTSENVSPFSLLELLSRLATLLGDYCGSLGEGTISRNVALVYELLDEVLDYGYVQTTSTEMLRNFIQTEAVVSKPFSLFDLSSVGLFGAETQQSKVAPSSAASRPVLSSRSDQSQKNEVALDVVERLSVLIASNGSLLKVDVQGEIRLKSFLPSGSEMRIGLTEEFCVGKSELRGYGPGIRVDEVSFHSSVNLDEFESHRILRLQPPQGELTVMRYQLSDDLPSPLPFRLFPSVQWDRGSGRLQVYLKLRCDLLSKSQALNVRLHLPLPRGVVSLSQELSSPEQKAELAEGALRWDLPRVQGGSQLSGLFQMDVPGPPGPPSHGLSTSASPLGLGPASLSFELPRHTCSGLQVRFLRLAFRPCGNANPHKWVRHLSHSDAYVIRI", "effect of mutation on interaction of the APP tail with μ4 (Y2H)": "little or no effect"}
{"molecule": "D190S: μ4 mutant, μ2-binding site, Y2H construct (protein, left off: Gal4 activation domain, end not stated, kept) MISQFFILSSKGDPLIYKDFRGDSGGRDVAELFYRKLTGLPGDESPVVMHHHGRHFIHIRHSGLYLVVTTSENVSPFSLLELLSRLATLLGDYCGSLGEGTISRNVALVYELLDEVLDYGYVQTTSTEMLRNFIQTEAVVSKPFSLFDLSSVGLFGAETQQSKVAPSSAASRPVLSSRSDQSQKNEVFLSVVERLSVLIASNGSLLKVDVQGEIRLKSFLPSGSEMRIGLTEEFCVGKSELRGYGPGIRVDEVSFHSSVNLDEFESHRILRLQPPQGELTVMRYQLSDDLPSPLPFRLFPSVQWDRGSGRLQVYLKLRCDLLSKSQALNVRLHLPLPRGVVSLSQELSSPEQKAELAEGALRWDLPRVQGGSQLSGLFQMDVPGPPGPPSHGLSTSASPLGLGPASLSFELPRHTCSGLQVRFLRLAFRPCGNANPHKWVRHLSHSDAYVIRI", "effect of mutation on interaction of the APP tail with μ4 (Y2H)": "little or no effect"}
{"molecule": "W439S: μ4 mutant, μ2-binding site, Y2H construct (protein, left off: Gal4 activation domain, end not stated, kept) MISQFFILSSKGDPLIYKDFRGDSGGRDVAELFYRKLTGLPGDESPVVMHHHGRHFIHIRHSGLYLVVTTSENVSPFSLLELLSRLATLLGDYCGSLGEGTISRNVALVYELLDEVLDYGYVQTTSTEMLRNFIQTEAVVSKPFSLFDLSSVGLFGAETQQSKVAPSSAASRPVLSSRSDQSQKNEVFLDVVERLSVLIASNGSLLKVDVQGEIRLKSFLPSGSEMRIGLTEEFCVGKSELRGYGPGIRVDEVSFHSSVNLDEFESHRILRLQPPQGELTVMRYQLSDDLPSPLPFRLFPSVQWDRGSGRLQVYLKLRCDLLSKSQALNVRLHLPLPRGVVSLSQELSSPEQKAELAEGALRWDLPRVQGGSQLSGLFQMDVPGPPGPPSHGLSTSASPLGLGPASLSFELPRHTCSGLQVRFLRLAFRPCGNANPHKSVRHLSHSDAYVIRI", "effect of mutation on interaction of the APP tail with μ4 (Y2H)": "little or no effect"}
{"tested_on": "cytosolic tail of APP", "experiment": "Yeast two-hybrid (Y2H) analysis of μ4 with the APP tail", "type": "binding", "settings": "mutations at μ4-binding site; growth on -His plates, 30°C", "excerpt": "as §1, §2"}
{"molecule": "S254K: μ4 mutant, μ4-binding site, Y2H construct (protein, left off: Gal4 activation domain, end not stated, kept) MISQFFILSSKGDPLIYKDFRGDSGGRDVAELFYRKLTGLPGDESPVVMHHHGRHFIHIRHSGLYLVVTTSENVSPFSLLELLSRLATLLGDYCGSLGEGTISRNVALVYELLDEVLDYGYVQTTSTEMLRNFIQTEAVVSKPFSLFDLSSVGLFGAETQQSKVAPSSAASRPVLSSRSDQSQKNEVFLDVVERLSVLIASNGSLLKVDVQGEIRLKSFLPSGSEMRIGLTEEFCVGKSELRGYGPGIRVDEVKFHSSVNLDEFESHRILRLQPPQGELTVMRYQLSDDLPSPLPFRLFPSVQWDRGSGRLQVYLKLRCDLLSKSQALNVRLHLPLPRGVVSLSQELSSPEQKAELAEGALRWDLPRVQGGSQLSGLFQMDVPGPPGPPSHGLSTSASPLGLGPASLSFELPRHTCSGLQVRFLRLAFRPCGNANPHKWVRHLSHSDAYVIRI", "effect of mutation on binding to the APP YKFFE signal (Y2H)": "little or no effects"}
{"molecule": "S257Q: μ4 mutant, μ4-binding site, Y2H construct (protein, left off: Gal4 activation domain, end not stated, kept) MISQFFILSSKGDPLIYKDFRGDSGGRDVAELFYRKLTGLPGDESPVVMHHHGRHFIHIRHSGLYLVVTTSENVSPFSLLELLSRLATLLGDYCGSLGEGTISRNVALVYELLDEVLDYGYVQTTSTEMLRNFIQTEAVVSKPFSLFDLSSVGLFGAETQQSKVAPSSAASRPVLSSRSDQSQKNEVFLDVVERLSVLIASNGSLLKVDVQGEIRLKSFLPSGSEMRIGLTEEFCVGKSELRGYGPGIRVDEVSFHQSVNLDEFESHRILRLQPPQGELTVMRYQLSDDLPSPLPFRLFPSVQWDRGSGRLQVYLKLRCDLLSKSQALNVRLHLPLPRGVVSLSQELSSPEQKAELAEGALRWDLPRVQGGSQLSGLFQMDVPGPPGPPSHGLSTSASPLGLGPASLSFELPRHTCSGLQVRFLRLAFRPCGNANPHKWVRHLSHSDAYVIRI", "effect of mutation on binding to the APP YKFFE signal (Y2H)": "little or no effects"}
{"molecule": "T280R: μ4 mutant, μ4-binding site, Y2H construct (protein, left off: Gal4 activation domain, end not stated, kept) MISQFFILSSKGDPLIYKDFRGDSGGRDVAELFYRKLTGLPGDESPVVMHHHGRHFIHIRHSGLYLVVTTSENVSPFSLLELLSRLATLLGDYCGSLGEGTISRNVALVYELLDEVLDYGYVQTTSTEMLRNFIQTEAVVSKPFSLFDLSSVGLFGAETQQSKVAPSSAASRPVLSSRSDQSQKNEVFLDVVERLSVLIASNGSLLKVDVQGEIRLKSFLPSGSEMRIGLTEEFCVGKSELRGYGPGIRVDEVSFHSSVNLDEFESHRILRLQPPQGELRVMRYQLSDDLPSPLPFRLFPSVQWDRGSGRLQVYLKLRCDLLSKSQALNVRLHLPLPRGVVSLSQELSSPEQKAELAEGALRWDLPRVQGGSQLSGLFQMDVPGPPGPPSHGLSTSASPLGLGPASLSFELPRHTCSGLQVRFLRLAFRPCGNANPHKWVRHLSHSDAYVIRI", "effect of mutation on binding to the APP YKFFE signal (Y2H)": "little or no effects"}
{"molecule": "T280A: μ4 mutant, μ4-binding site, Y2H construct (protein, left off: Gal4 activation domain, end not stated, kept) MISQFFILSSKGDPLIYKDFRGDSGGRDVAELFYRKLTGLPGDESPVVMHHHGRHFIHIRHSGLYLVVTTSENVSPFSLLELLSRLATLLGDYCGSLGEGTISRNVALVYELLDEVLDYGYVQTTSTEMLRNFIQTEAVVSKPFSLFDLSSVGLFGAETQQSKVAPSSAASRPVLSSRSDQSQKNEVFLDVVERLSVLIASNGSLLKVDVQGEIRLKSFLPSGSEMRIGLTEEFCVGKSELRGYGPGIRVDEVSFHSSVNLDEFESHRILRLQPPQGELAVMRYQLSDDLPSPLPFRLFPSVQWDRGSGRLQVYLKLRCDLLSKSQALNVRLHLPLPRGVVSLSQELSSPEQKAELAEGALRWDLPRVQGGSQLSGLFQMDVPGPPGPPSHGLSTSASPLGLGPASLSFELPRHTCSGLQVRFLRLAFRPCGNANPHKWVRHLSHSDAYVIRI", "effect of mutation on binding to the APP YKFFE signal (Y2H)": "little or no effects"}
